Source: PMC2811017
Where two headings read alike, the source gives them in different places.

Tests used:
Assay in all cases: ITC
[1] = target: eRF1:eRF3 complex (human) (UniProt P62495)
[2] = target: full-length human eRF3a (GSPT1) (human)
[3] = target: full-length human eRF3a (GSPT1) (human); remark: listed apart in the source

| Kd [1] | dH [1] | stoichiometry N (PABP per eRF3) [1] | Kd [2] | dH [2] | stoichiometry N (PABP per eRF3) [2] | Ka [3] | dH [3] | Ka [2] | Substance |
| --- | --- | --- | --- | --- | --- | --- | --- | --- | --- |
| 0.7 µM | -26.3 kcal/mol | 0.71 | 0.7 µM | -30.3 kcal/mol | 0.5 | – | – | – | human 6His cytoplasmic poly(A)-binding protein (PABP) (from UniProt P11940 1-636) (natural protein) |
| – | – | – | – | -6.1 kcal/mol | – | 1.1e+06 M⁻¹ | -10.8 kcal/mol | 4.4e+06 M⁻¹ | human 6His eRF1 (from UniProt P62495 1-437) (natural protein) |
